# B1: FLAG®-tagged Atr-2 protein (73 kDa Atr-2 truncated protein encoded by pCIneoFLAGATR2) (protein)
# chain: MLVAELRRVTVLWDELWLGVLLQQHMYVLRRIQQLEDEVKRVQNNNTLRKEEKIAIMREKHTALMKPIVFALEHVRSITAAPAETPHEKWFQDNYGDAIENALEKLKTPLNPAKPGSSWIPFKEIMLSLQQRAQKRASYILRLEEISPWLAAMTNTEIALPGEVSARDTVTIHSVGGTITILPTKTKPKKLLFLGSDGKSYPYLFKGLEDLHLDERIMQFLSIVNTMFATINRQETPRFHARHYSVTPLGTRSGLIQWVDGATPLFGLYKRWQQREAALQAQKAQDSYQTPQNPGIVPRPSELYYSKIGPALKTVGLSLDVSRRDWPLHVMKAVLEELMEATPPNLLAKELWSSCTTPDEWWRVTQSYARSTAVMSMVGYIIGLGDRHLDNVLIDMTTGEVVHIDYNVCFEKGKSLRVPEKVPFRMTQNIETALGVTGVEGVFRLSCEQVLHIMRRGRETLLTLLEAFVYDPLVDWTAGGEAGFAGAVYGGGGQQAESKQSKREMEREITRSLFSSRVAEIKVNWFKNRDEMLVVLPKLDGSLDEYLSLQEQLTDVEKLQGKLLEEIEFLEGAEGVDHPSHTLQHRYSEHTQLQTQQRAVQEAIQVKLNEFEQWITHYQAAFNNLEATQLASLLQEISTQMDLGPPSYVPA
# Legend:
# [1] = target: histone H1
# [2] = target: myelin basic protein
# [3] = target: PHAS-1
protein,measurement,setting,value
B1,"kinase activity (32P-ATP incorporation, P81 paper, Cerenkov radiation)",[1],did not phosphorylate PHAS-1 or histone H1
same,"kinase activity (32P-ATP incorporation, P81 paper, Cerenkov radiation)",[2],able to phosphorylate the Atr-2 protein itself and the exogenous myelin basic protein substrate
same,"kinase activity (32P-ATP incorporation, P81 paper, Cerenkov radiation)",[3],did not phosphorylate PHAS-1 or histone H1
same,"kinase activity (32P-ATP incorporation, P81 paper, Cerenkov radiation)",,able to phosphorylate the Atr-2 protein itself

# — patent US20030023055
